Substitutions are numbered along the chain they refer to.
B1: H4H33336P (antibody, human IgG4 S228P, kappa, V domains shown)
VH: QVQLVESGGGVVQPGRSLRLSCVASGFILSHYGMHWVRQAPGKGLEWVAVIWFDGTNKYYADSVKGRFTVSRDNSKNTLYMQMNSLRAEDTAVYYCARDPPPARRGNYNGMDVWGQGTTVTVSS
VL: DIQMTQSPSSLSASVGDRVTITCRASQDIRNDLGWYQQKPGKAPKRLIFGASSLQSGVPLRFSGSGSGTEFTLTINNLQPEDFATFYCLQDNSYPWTFGQGTKVEIKR
notes: Fully human antibody; also called Artemin mAb; anti-ARTN antibody
B2: H4H33349P (antibody, human IgG4 S228P, kappa, V domains shown)
VH: QVQLVESGGGVVQPGRSLRLSCEASGFTFSDYDLHWVRQAPGKGLEWVAFISNDGSNEYYPKSVKGRFSISRDNSKNTLYLQMNSLRAEDTAVYHCTKERDYYYDSSGSLDYWGQGTLVTVSS
VL: DIQMTQSPSSLSASVGDRVTITCRASQTINNYLNWYQQKPGKAPKLLIYTTSGLQSGVPSRFSGRGSGTDFTLAISSLQPEDFATYYCQQSYHSPFTFGPGTKVDIKR
notes: as for B1
B3: H4H33331P (antibody, human IgG4 S228P, kappa, V domains shown)
VH: EVQLVESGGDLVQPGGSLKLSCAASGFTFSGSAMHWVRQASGKGLEWVGRIRNKVHRYATEYGASVKGRFTISRDDSKNTAYLQMNSLKIEDTAVYYCVVVVPGSIEAFDIWGQGTMVTVSS
VL: DIQMTQSPSSLSASVGDRVTITCRASQSISTYLNWYQQKPGKAPNLLIYAASTLESGVPSRFSGSGSGTDFTLTISSLQPEDFEIYYCQQSYNIPWTFGQGTKVEIKR
notes: Fully human antibody (human variable and constant domains) from a VELOCIMMUNE mouse; also called Artemin mAb; anti-ARTN antibody

Columns and labels:
hArtemin-MMH [1] = target: T1, hArtemin-MMH (human); experiment: cell-based or functional assay
T1 chain: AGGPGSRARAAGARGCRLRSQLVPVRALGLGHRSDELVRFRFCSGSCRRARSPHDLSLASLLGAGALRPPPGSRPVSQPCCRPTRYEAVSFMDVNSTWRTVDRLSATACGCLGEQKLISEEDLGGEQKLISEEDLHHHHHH

MfArtemin-MMH [2] = target: T2, MfArtemin-MMH (cynomolgous monkey (Macaca fascicularis)); experiment: cell-based or functional assay
T2 chain: T1 chain with A8P, V76I

mArtemin-MMH [3] = target: T3, mArtemin-MMH (mouse); experiment: cell-based or functional assay
T3 chain: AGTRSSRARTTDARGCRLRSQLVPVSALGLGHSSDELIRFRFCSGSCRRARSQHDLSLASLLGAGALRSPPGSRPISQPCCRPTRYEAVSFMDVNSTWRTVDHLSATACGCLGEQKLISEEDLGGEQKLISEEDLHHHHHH

hArtemin-MMH [4] = target: T1, hArtemin-MMH; experiment: BLI (Octet HTX), mAb captured on AHC tips, artemin at 15 nM, 25 C
Description: (§1) The entire experiment was performed at 25° C. in 10 mM HEPES, 150 mM NaCl, 3 mM EDTA, 0.02% NaN3 and 0.05% v/v Surfactant Tween-20, 1 mg/mL BSA, pH7.4 (HBS-EBT) buffer with the plate shaking at a speed of 1000 rpm. Different Artemin mAbs were first captured onto anti-human antibody (AHC) coated Octet biosensor tips (Fortebio Inc, #18-5064) by submerging the biosensor tips for 40 seconds in wells containing 2 μg/mL of Artemin mAb. […] All the Artemin and Artemin mAb samples were prepared in HBS-EBT buffer. The real-time binding response was monitored during the entire course of the experiment and the binding response at the end of every step was recorded.

MfArtemin-MMH [5] = target: T2, MfArtemin-MMH; experiment: as above
Description: as §1

mArtemin-MMH [6] = target: T3, mArtemin-MMH; experiment: as above
Description: as §1

hArtemin-MMH [7] = target: T1, hArtemin-MMH; experiment: BLI (Octet HTX), mAb captured on AHC tips, artemin at 30 nM, 25 C
Description: as §1

MfArtemin-MMH [8] = target: T2, MfArtemin-MMH; experiment: as above
Description: as §1

mArtemin-MMH [9] = target: T3, mArtemin-MMH; experiment: as above
Description: as §1

hArtemin-MMH [10] = target: T1, hArtemin-MMH; experiment: BLI (Octet HTX), mAb captured on AHC tips, artemin at 7.5 nM, 25 C
Description: as §1

MfArtemin-MMH [11] = target: T2, MfArtemin-MMH; experiment: as above
Description: as §1

mArtemin-MMH [12] = target: T3, mArtemin-MMH; experiment: as above
Description: as §1

mArtemin-MMH [13] = target: T3, mArtemin-MMH; experiment: SPR Biacore T200, mArtemin-MMH captured by anti-myc mAb, mAb injected, 25 C
Description: The equilibrium dissociation constant (KD) for Artemin binding to each of Artemin monoclonal antibodies (mAbs) H4H33331P, H4H33335P, H4H33336P, and H4H33349P was determined using a real-time surface plasmon resonance Biacore T200 biosensor. All binding studies were performed in 10 mM HEPES, 150 mM NaCl, 3 mM EDTA, and 0.05% v/v Surfactant Tween-20, pH 7.4 (HBS-ET) running buffer at 25° C. The Biacore CM4 sensor chip surface was first derivatized by amine coupling with anti-myc mAb to capture hArtemin-MMH, MfArtemin-MMH, or mArtemin-MMH. Different concentrations of Artemin mAbs (60-2.2 nM, 3-fold serial dilution) prepared in […] running buffer were injected over the Artemin-captured surfaces for 3 min at a flow rate of 50 μL/min and their dissociation in HBS-ET running buffer was monitored for 5 minutes. At the end of each cycle, the Artemin-captured surfaces were regenerated using a 6 sec injection of 20 mM phosphoric acid.
The association rate (kₐ) and dissociation rate (kd) were determined by fitting the real-time binding sensorgrams to a 1:1 binding model with mass transport limitation using Scrubber 2.0c curve-fitting software. Binding dissociation equilibrium constant (KD) and dissociative half-life (t½) were calculated from the kinetic rates as: KD (M)=kd/kₐ, and t_{1/2} (min)=[In2/(60*kd)].

mArtemin-MMH [14] = target: T3, mArtemin-MMH; experiment: blocking ELISA, antibody blocks 150 pM msARTN.mmh binding to plate-coated hGFRa3.hFc
Description: Experiments were carried out using the following procedures. Plates were coated with hGFRa3.hFc at 2 μg/ml in PBS on a 96-well microtiter plate at 4° C. overnight for all three assays. […] In other microtiter plates, a constant amount of either 75 pM hARTN.mmh, 400 pM mfARTN.mmh, or 150 pM msARTN.mmh were separately bound with anti-ARTN antibodies and an irrelevant IgG4 antibody control at a serial dilution series from 0.0017 nM to 100 nM in PBS+0.5% BSA. After a one-hour incubation, the mixture solutions were transferred to microtiter plates coated with hGFRa3.hFc. After one hour of incubation at RT, the wells were washed with PBST, and plate-bound ARTN was detected with an anti-penta-His antibody conjugated with horseradish peroxidase (HRP) (Qiagen). The plates were then developed using TMB substrate solution (BD Biosciences, #555214) according to manufacturer's recommendation and absorbance at 450 nm was measured on a Victor X5 plate reader.
Binding data were analyzed using a sigmoidal dose-response model within Prism™ software (GraphPad). […] If the calculated IC50 value was below the LLOA, less than LLOA was reported. Percent blocking at 100 nM antibody was calculated based on the background-corrected binding signal observed at the highest antibody concentration tested using the formula listed below and reported for all tested antibodies: […]

Binder | Max inhibition (%), SRE-luciferase reporter, 500 pM hArtemin (hArtemin-MMH [1]) [%] | Max inhibition (%), SRE-luciferase reporter, 3 nM mfArtemin (MfArtemin-MMH [2]) [%] | Max inhibition (%), SRE-luciferase reporter, 1 nM mArtemin (mArtemin-MMH [3]) [%] | Artemin Binding Response (nm) (hArtemin-MMH [4]) | Artemin Binding Response (nm) (MfArtemin-MMH [5]) | Artemin Binding Response (nm) (mArtemin-MMH [6]) | Artemin Binding Response (nm) (hArtemin-MMH [7]) | Artemin Binding Response (nm) (MfArtemin-MMH [8]) | Artemin Binding Response (nm) (mArtemin-MMH [9]) | Artemin Binding Response (nm) (hArtemin-MMH [10]) | Artemin Binding Response (nm) (MfArtemin-MMH [11]) | Artemin Binding Response (nm) (mArtemin-MMH [12]) | 60 nM Artemin mAb Bound (RU) (mArtemin-MMH [13]) | % Blocking with 100 nM Ab (mArtemin-MMH [14]) [%] | IC50 (mArtemin-MMH [14]) [nM] | Kd (mArtemin-MMH [13]) [nM] | koff (mArtemin-MMH [13]) [s⁻¹] | kon (mArtemin-MMH [13]) [M⁻¹ s⁻¹] | t½ (mArtemin-MMH [13]) [h]
B1 | 100 | 100 | 100 | 0.09 | 0.03 | 0.01 | 0.12 | 0.06 | 0.03 | 0.05 | 0.01 | 0 | 3 | 81 | 0.41 | – | – | – | –
B2 | 100 | 100 | 100 | 0.11 | 0.09 | 0.11 | 0.11 | 0.12 | 0.11 | 0.11 | 0.04 | 0.11 | 20 | 88 | – | 0.113 | 5.91e-05 | 521000 | 3.25
B3 | 100 | 100 | 100 | 0.11 | 0.03 | 0.08 | 0.11 | 0.09 | 0.1 | 0.07 | 0.01 | 0.07 | 7 | 83 | – | 0.346 | 5.4e-05 | 156000 | 3.57
